Assay results as given in the supplement of paper PMC10567573.
± gives the standard deviation.

Test: protein stability index of a GFP-peptide fusion (GPS, HEK-293T) (PSI 1-6); higher = more stable
[1] = treatment: DMSO, c terminus: a fixed tail appended
[2] = treatment: MLN4924 1 uM, 8 h, c terminus: a fixed tail appended
[3] = treatment: DMSO, c terminus: native
[4] = treatment: MLN4924 1 uM, 8 h, c terminus: native
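Further: 24-mer peptide tiles fused after GFP, lentivirally expressed, FACS-sorted into six equal bins by GFP/DsRed ratio, decoded by Illumina sequencing, PSI is the read-weighted mean bin number.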

Sequence	protein stability index [1]	protein stability index [2]	protein stability index [3]	protein stability index [4]
QMVSAIVRTMQNTNDVETARCTAG [CTNNB1]	2.87 ± 0.12	2.93 ± 0.3		
SSSSSFGSGFGGGYGGGLGAGFGG [KRT16]	2.65 ± 0.46	2.89 ± 0.3		
IDEVRTQYEEIALKSKAEAEALYQ [KRT71]	4.77 ± 0.29	5.01 ± 0.26		
IFMGYQNVEDEAETKKVLGLQDTI [PALM]	3.27 ± 0.26	3.35 ± 0.3		
SFAILRIIRLVRVFRIFKLSRHSK [KCNA4]	2.2 ± 0.4	2.44 ± 0.15		
SAIVLGDLKLRKFVFSTEERTQLR [TRIB1]	2.77 ± 0.48	2.92 ± 0.29		
GSVYFWATPRQVPSLQHLCRMSIR [WSB1]	3.05 ± 0.2	2.7 ± 0.043		
NNTLVALPIVAIENILSFMSYDEI [FBXO28]	3.22 ± 0.33	3 ± 0.61		
YLGLPRLEFYRYYQQLKLEGPGEQ [SLC29A1]	2.54 ± 0.39	2.58 ± 0.38		
QATKASLKERFAFLFNSELLSDVR [BTBD1]	2.55 ± 0.22	2.67 ± 0.34		
CDDGGDGRGAVVPGAGLRRPTYTP [ZBTB22]	4.35 ± 0.23	4.25 ± 0.26		
CDSTNAAIAKQALKKPIKGKQAPR [KMT5A]	4.79 ± 0.22	4.74 ± 0.29		
QHLGEYENVLAALEGLNLSILKAM [NECAB1]	2.25 ± 0.24	2.38 ± 0.23		
ITLSQEQIQKYTDCLQFYVNSTLK [RTN1]	2.08 ± 0.1	2.1 ± 0.086		
IAELLEVFDLRMMVANILNNEAFM [RHOBTB2]	3.36 ± 0.2	2.98 ± 0.55		
CCEFLKRQLDPSNCLGIRAFADTH [KLHL20]	2.62 ± 0.69	2.42 ± 0.48		
EPASESVVGALPAEHQFSFMEKRN [TRAF3IP2]	4.71 ± 0.26	4.98 ± 0.27		
GANVKPRNSTPPSLARNPAPGVLT [ZC2HC1A]	4.24 ± 0.23	4.16 ± 0.5		
IDVEALQVAFGSLYRDDVLIKPSR [GMCL1]	2.37 ± 0.16	2.48 ± 0.37		
LWEAPPLGAGGGSLLPGAVEQPQP [NEK8]	4.42 ± 0.13	4.36 ± 0.15		
QEVVELPVTERQIEREHLIQLRRW [TBC1D10A]	4.05 ± 0.25	4.22 ± 0.2		
QEYESIDPGQQFTWEHSNLEVNKP [PTPRD]	4.94 ± 0.1	4.93 ± 0.069		
AREHFGTVKTHLTSLKTKFPAEQY [TSN]	3.02 ± 0.085	3.08 ± 0.48		

Sequence	protein stability index [1]	protein stability index [2]	protein stability index [3]	protein stability index [4]
MHLARCRWASAPPLYTLIDVLKYS [ZSWIM9]	2.94 ± 0.22	2.43 ± 0.35		
ALLKFHTLDSYEDKQKLKRTEIIS [YJU2B]	2.53 ± 0.3	2.53 ± 0.3		
VTSDVNKLSSFYSLKLIKRLYVDK [SERPINB5]	2.18 ± 0.18	2.29 ± 0.18		
VHEHDGHLYLGSFRSPFLCRLSLQ [APMAP]	2.73 ± 0.51	2.33 ± 0.41		
SWSIQMRQHHHQSSFPGSLPQETN	3.51 ± 0.1	3.53 ± 0.11		
LKAKLQMTEAALALSEQKAQDLGE [LRRC45]	4.51 ± 0.36	4.57 ± 0.28		
VEQPQPQFISRFLEGQSGVTIKHV [NEK8]	3.27 ± 0.18	3.29 ± 0.17		
ALVVALWGPLQDSLEHTLRVAIAH [TSPAN10]	2.89 ± 0.12	3.05 ± 0.15		
KVVHAVDGTAENGIHPLSSSEVDE [PALM]	5.25 ± 0.11	5.47 ± 0.19		
VISKKAKVKVPQKTAGKENHFDMH [ZNF75A]	3.08 ± 0.24	3.06 ± 0.26		
DHPGTPPHKTFRKLRLFDTPHTPK [WEE1]	3.88 ± 0.11	3.98 ± 0.15		
PPAPAPLPPPSAPSLQPSRKLSPT [SCAMP3]	5.34 ± 0.25	5.32 ± 0.12		
LANSWNCLPKHLLHSVNQRFGSNN [KLHDC2]	2.43 ± 0.33	2.3 ± 0.23		
SGSDSGGSSSSSSSSINSPDRASG [FAM104A]	5.36 ± 0.33	5.47 ± 0.11		
HTTLQCLAARVIVNHRIYYKGHIP [FEM1C]	2.43 ± 0.17	2.43 ± 0.25		
DQDGDQAPEYRGRTELLKDAIGEG [MOG]	5.33 ± 0.34	5.43 ± 0.21		
HRERVAMHYQMSVTLKYEIKKLIY [JAGN1]	2.71 ± 0.49	2.92 ± 0.45		
AWEDSHGSQDGHFVLSCSYDGLDC [SCNN1D]	3.73 ± 0.17	3.59 ± 0.19		
TSKDLVTLGASSLREERGHPLHPR [C6orf223]	4.26 ± 0.063	4.33 ± 0.18		
SALFAGNEWRRPIIQFVESGDDKN [TRIM29]	4.37 ± 0.23	4.13 ± 0.25		
GDVPPSMSGSCAVCVDRVLYLFGG [KLHDC2]	2.74 ± 0.79	2.47 ± 0.55		
GGTEEKSSLLMSCLACDTWAVIL [RPAIN]			2.7 ± 0.86	2.4 ± 0.84
AEMLGSVVGNWQYFFPVIFSKASS [MAGEA3]	2.17 ± 0.31	2.21 ± 0.35		

Sequence	protein stability index [1]	protein stability index [2]	protein stability index [3]	protein stability index [4]
QRFRLDNLLNMAYGVKSPLSLIAR [ELAVL3]	2.05 ± 0.14	2.19 ± 0.18		
ITAFYNEARARARANRGILQQERQ [DNAJC4]	3.4 ± 0.5	3.81 ± 0.36		
TGIEESTDGMILGPEDLSYQIYDV [LARP4]	3.76 ± 0.28	3.6 ± 0.29		
PQEEIATKKLRLTKPSKSAALHID [INTS4]	4.36 ± 0.047	4.46 ± 0.1		
SGVVRIWDLRDQSVVRDLKGYPDG [TLE6]	3.3 ± 0.31	3.42 ± 0.23		
ICQKTATKKRKTFDSSRQRAEGTD [ZC2HC1A]	4.8 ± 0.1	4.67 ± 0.53		
VALLRAHAGEHLLLGATKRSMVFK [HNF4A]	2.27 ± 0.45	2.48 ± 0.096		
AVFIALLPILGHRDYKIQASRTWC [PTGFR]	2.95 ± 0.64	2.81 ± 1.1		
PTVTTSWQSESLPVSLSASQSWHT [BCL2L13]	3.25 ± 0.31	3.12 ± 0.22		
DGGEPQSVQVDGQARTQKLQGLIP [TNXB]		5.22 ± 0.99		
EGCGPPLRRWLRANLAASGGYAIA [TSPAN10]	1.94 ± 0.21	2.52 ± 0.3		
NIKPRRYLTVVFEHDAWFIFFMAA [SLC29A1]	3.1 ± 0.48	2.48 ± 0.61		
AQGPNKPGYLVGRNNANGVDLNRN [CPN1]	4.33 ± 0.11	4.35 ± 0.16		
MASLGPAAAGEQASGAEAEPGPAG [BTBD1]	5.55 ± 0.16	5.52 ± 0.31		
EDDGLQSAFTAAHELGHVFNMLHD [ADAMTS4]	3.77 ± 0.28	3.9 ± 0.4		
VRRECWFLPTALLCAYGFFASLRP [SLC19A2]	2.95 ± 0.29	2.93 ± 0.28		
TFFRLLLPEAPPKKFLTLGSKFRY [EPB41L3]	2.23 ± 0.32	2.85 ± 1.4		
QQESESEIDSVPKTQSELASESEH [MIA2]	5.44 ± 0.17	5.62 ± 0.15		
DATWAAVAACTKEIDTQGRHLAHS [C10orf62]	4.04 ± 0.24	4.09 ± 0.39		
TWAMRQRGTHAVVGVATADAPLHS [SPSB1]	2.72 ± 0.34	2.87 ± 0.23		
LNLGPALSAALASSQKQHSFTSSD [C8orf76]	3.31 ± 0.31	3.35 ± 0.19		
TPLHVAAANKAVKCAEVIIPLLSS [ANKRD44]	2.44 ± 0.26	2.54 ± 0.22		
HTHRAHTVVPLDDATQEYKEKLQK [TRIM39]	5.39 ± 0.2	5.3 ± 0.35		

Sequence	protein stability index [1]	protein stability index [2]	protein stability index [3]	protein stability index [4]
TKQNFFSQTPILQALQHVQASCDE [INTS3]	3.95 ± 0.12	4.16 ± 0.23		
SAEQLKAQAIDFINRCSVLRQLGC [SPOPL]	2.21 ± 0.33	2.51 ± 0.28		
GYPPFCSETPQETYRKVMNWKETL [STK38L]	2.88 ± 0.29	3.05 ± 0.37		
ISLRVYRKVLQAVHRGDGANPFQA [RTN2]	2.59 ± 0.46	2.2 ± 0.32		
PESQMCRKFSRECEDQKQIKKPES [NEUROD6]	5.09 ± 0.38	5.31 ± 0.22		
AWKELDRNYLNYGEEGAPGKWQQQ [CHGB]	3.47 ± 0.43	3.75 ± 0.67		
LLPNPYQQDFLGLPEELRRLSGLS [C22orf15]	2.91 ± 0.17	2.91 ± 0.34		
ASSRASENQSPSSSNYFSPRESTD [ZBTB22]	5.3 ± 0.29	5.167 ± 0.043		
SLLSLPVWVLMDEDVRIFFYQSPY [NCF4]	2.56 ± 0.24	2.66 ± 0.47		
FGATTNYGKDIVKACSLLDVAVHM [ZBED1]	2.17 ± 0.37	2.1 ± 0.34		
LEQFLAILPKELQAWVQKHHPENG [ZNF396]	2.63 ± 0.14	2.79 ± 0.24		
LLQGAGLDVERWLKPAMTQAQDEV [FCHSD1]	3.6 ± 0.28	3.54 ± 0.26		
TSCIVIILIIISVIVQIKQPRKKY [NETO1]	3.26 ± 0.17	3 ± 0.16		
KFRAKGRKPCKLMLQVVKILVVTV [MCOLN1]	2.51 ± 0.39	2.16 ± 0.19		
CFPRLDINVSKGINHLLKSPFSVH [PRIM1]	2.14 ± 0.68	2.05 ± 0.36		
LRAESDFEQLPDDVAISANIADIE [NCF4]	4.66 ± 0.28	5.21 ± 0.19		
TEHEKKQKLETDAMFRLEHGEADR [YJU2B]	5.32 ± 0.12	5.46 ± 0.3		
LGRFNDINVPIRLECVKFASHCLM [PDS5B]	2.83 ± 1.6	2.41 ± 0.94		
QVPVVDFQAELRQAFLAETPRGG [SNURF]			3.04 ± 0.46	3.19 ± 0.36
PSAAGAPASAPGEPRQRRLLLLDL [ANKRD9]	2.86 ± 0.29	3.11 ± 0.4		
